Results as given in the DeepSol protein solubility set.

Assay: soluble on expression in E. coli; label from the status in PepcDB or PDB records

Sequence | soluble on expression in E. coli
GYDCLGYYQNQEDIMNSPKRQSSVNLGAGDLKYNDFNGDGIIDGSDQHRIGKNSMPRGQYGFSADLNYKGWFMNMLWQGATPADLYMGGMIQGSQSGSGYPPVIYDFQTDVWTPNNTGARYPRLRSTASYNGSNNYGSSDFWLINTGYLRLKTLSIGYDFKHKLLKRVAWMNKCNVSLNGYNLLTFSKANKFDIDPEIGDGNLYTYPVSRVYSISVNVGF | not soluble
HHHHDYDIPTTENLYFQGHMTIHKKGQAHWEGDIKRGKGTVSTESGVLNQQPYGFNTRFEGEKGTNPEELIGAAHAACFSMALSLMLGEAGFTPTSIDTTADVSLDKVDAGFAITKIALKSEVAVPGIDASTFDGIIQKAKAGCPVSQVLKAEITLDYQLKS | soluble
HHHHHHDEKRRPKRREIPLKVLVKAVLFACMLMRKTMASRVRVTILFATETGKSEALAWDLGALFSCAFNPKVVCMDKYRLSCLEEERLLLVVTSTFGNGDCPGNGEKLKKSLFMLKELNNKFRYAVFGLGSSMYPRFCAFAHDIDQKLSHLGASQLTPMGEGDELSGQEDAFRSWAVQTFKAACETFDVRGKQHIQIPKLYTSNVTWDPHHYRLVQDS | soluble
HHHHHHMAEKKQWHETLHDQFGQYFAVDNVLYHEKTDHQDLIIFENAAFGRVMALDGVVQTTERDEFIYHEMMTHVPLLAHGHAKHVLIIGGGDGAMLREVTRHKNVESITMVEIDAGVVSFCRQYLPNHNAGSYDDPRFKLVIDDGVNFVNQTSQTFDVIISDCTDPIGPGESLFTSAFYEGCKRCLNPGGIFVAQNGVCFLQQEEAIDSHRKLSHYFSDVGFYQAAIPTYYGGIMTFAWATDNDALRHLSTEIIQARFLASGLKCRYYNPAIHTAAFALPQYLQDALASQPS | soluble
HHHHHHQVQLVQSGAEVKKPGASVKVSCQASGYRFSHFTVHWVRQAPGQRFEWMGWINPYNGNKEFSAKFQDRVTFTADTSANTAYMELRSLRSADTAVYYCARVGEWGWDDSPYDNYYMDVWGKGTTVIVSSGGGGSGGGGSGGGGSEIVLTQAPGTLSLSPGERATFSCRSSHSIRSRRVAWYQHKPGQAPRLVIHGVSNRASGISDRFSGSGSGTDFTLTITRVEPEDFALYYCQVYGASSYTFGQGTKLERK | soluble
HHMAQANFGVVGMAVMGKNLALNVESRGYTVAIYNRTTSKTEEVFKEHQDKNLVFTKTLEEFVGSLEKPRRIMLMVQAGAATDATIKSLLPLLDIGDILIDGGNTHFPDTMRRNAELADSGINFIGTGVSGGEKGALLGPSMMPGGQKEAYDLVAPIFEQIAAKAPQDGKPCVAYMGANGAGHYVKMVHNGIEYGDMQLIAESYDLLKRILGLSNAEIQAIFEEWNEGELDSYLIEITKEVLKRKDDEGEGYIVDKILDKAGNKGTGKWTSESALDLGVPLPLITESVFARYISTYKDERVKASKVLSGPALDFSGDKKEVIEKIRKALYFSKIMSYAQGFAQLRKASEEFDWDLPYGTIAQIWRAGCIIRAEFLQNITDAFDKDSELENLLLDDYFVDITKRYQEAVRDVVSLAVQAGTPIPTFTSAISYYDSYRSENLPANLIQAQRDYFGAHTYERTDKAGIFHYDWYTED | soluble
HHMDEEYDVIVLGTGLTECILSGIMSVNGKKVLHMDRNPYYGGESSSITPLEELYKRFQLLEGPPETMGRGRDWNVDLIPKFLMANGQLVKMLLYTEVTRYLDFKVVEGSFVYKGGKIYKVPSTETEALASNLMGMFEKRRFRKFLVFVANFDENDPKTFEGVDPQNTSMRDVYRKFDLGQDVIDFTGHALALYRTDDYLDQPCLETINRIKLYSESLARYGKSPYLYPLYGLGELPQGFARLSAIYGGTYMLNKPVDDIIMENGKVVGVKSEGEVARCKQLICDPSYVPDRVRKAGQVIRIICILSHPIKNTNDANSCQIIIPQNQVNRKSDIYVCMISYAHNVAAQGKYIAIASTTVETTDPEKEVEPALELLEPIDQKFVAISDLYEPIDDGSESQVFCSCSYDATTHFETTCNDIKDIYKRMAGSAFDFENMKRKQNDVFGEADQ | soluble
HKEDKEDFAELSGIAVPAEITAEDGTMFKEALLFTHRGLSGPSVLQISSFWKAGQKVSINLVPNEDIALLLERSLEKHPNQSLKNTLAKVLPKRLVEVLIERKELMDKPLKQFNPKELASVVERLENWSIAPNGTEGYRTAEVTLGGVDTDHLSSKTMECKNIKGLYFIGEVMDVTGWLGGYNFQWCWSSGFVAGQWV | not soluble
HLGEHEVPGHLMDFVTTYSTNLAVPQRRDADDERVLAGKKLFYQANCVACHVPKYVTRRDAAQPEHRFQLIWPYTDMLLHDMGDGLADGVSEEQANGREWRTPPLWGIGLTRLVNPSATWLHDGRARTLLEAVLWHGGEAQAARDRVVAMSPGERADLIRFLESL | not soluble
HLPETIYVIRKGDMVIRPKYDEYQQTNGTEIIRFDQTRKESPFKVQRIIERSCKFYGNNYISKKAETNRITGISSKPPILLTPLFPTYFFPTHSDRQEENIWINMHYIENVKELKNRKSKIIFANGDSLTLNVSFHSLWHQYTNAIIYYYMVDKQSRMKSNNPEQPIDYNQSSLNIFEALSRYSLFEEN | not soluble
HLYPGEVCPGMDIRNNLTRLHELENCSVIEGHLQILLMFKTRPEDFRDLSFPKLIMITDYLLLFRVYGLESLKDLFPNLTVIRGSRLFFNYALVIFEMVHLKELGLYNLMNITRGSVRIEKNNELCYLATIDWSRILDSVEDNHIVLNKDDNEECGDICPGTAKGKTNCPATVINGQFVERCWTHSHCQKVCPTICKSHGCTAEGLCCHSECLGNCSQPDDPTKCVACRNFYLDGRCVETCPPPYYHFQDWRCVNFSFCQDLHHKCKNSRRQGCHQYVIHNNKCIPECPSGYTMNSSNLLCTPCLGPCPKVCHLLEGEKTIDSVTSAQELRGCTVINGSLIINIRGGNNLAAELEANLGLIEEISGYLKIRRSYALVSLSFFRKLRLIRGETLEIGNYSFYALDNQNLRQLWDWSKHNLTITQGKLFFHYNPKLCLSEIHKMEEVSGTKGRQERNDIALKTNGDQASCENELLKFSYIRTSFDKILLRWEPYWPPDFRDLLGFMLFYKEAPYQNVTEFDGQDACGSNSWTVVDIDPPLRSNDPKSQNHPGWLMRGLKPWTQYAIFVKTLVTFSDERRTYGAKSDIIYVQTDATNPSVPLDPISVSNSSSQIILKWKPPSDPNGNITHYLVFWERQAEDSELFELDYCLKGLKLPSRTWSPPFESEDSQKHNQSEYEDSAGECCSCPKTDSQILKELEESSFRKTFEDYLHNVVFVPRPSRKRRSLGDVGNHGNNVPTVAAFPNTSSTSVPTSPEEHRPFEKVVNKESLVISGLRHFTGYRIELQACNQDTPEERCSVAAYVSARTMPEAKADDIVGPVTHEIFENNVVHLMWQEPKEPNGLIVLYEVSYRRYGDEELHLCDTRKHFALERGCRLRGLSPGNYSVRIRATSLAGNGSWTEPTYFYVTDYLDVPSNIAK | soluble
HMDIRPRLRIGQINLGGAEDATRELPSIARDLGLDIVLVQEQYSMVGFLAQCGAHPKAGVYIRNRVLPCAVLHHLSSTHITVVHIGGWDLYMVSAYFQYSDPIDPYLHRLGNILDRLRGARVVICADTNAHSPLWHSLPRHYVGRGQEVADRRAKMEDFIGARRLVVHNADGHLPTFSTANGESYVDVTLSTRGVRVSEWRVTNESSSDHRLIVFGVGGGTTGERDEDEEARSDLRPGEP | soluble
HMTDLKASSLRALKLMDLTTLNDDDTDEKVIALCHQAKTPVGNTAAICIYPRFIPIARKTLKEQGTPEIRIATVTNFPHGNDDIDIALAETRAAIAYGADEVDVVFPYRALMAGNEQVGFDLVKACKEACAAANVLLKVIIETGELKDEALIRKASEISIKAGADFIKTSTGKVAVNATPESARIMMEVIRDMGVEKTVGFKPAGGVRTAEDAQKYLAIADELFGADWADARHYRFGASSLLASLLKALGHGDGKSASSY | soluble
HSQITLRGNAINTVGELPAVGSPAPAFTLTGGDLGVISSDQFRGKSVLLNIFPSVDTPVSATSVRTFDERAAASGATVLCVSKDLPFAQKRFCGAEGTENVMPASAFRDSFGEDYGVTIADGPMAGLLARAIVVIGADGNVAYTELVPEIAQEPNYEAALAALGA | soluble
HTGTVDIVADKTLYQPGETAKMLITFPEPIDEALLTLERDRVEQQSLLSHPANWLTLQRLNDTQYEARVPVSNSFAPNITFSVLYTRNGQYSFQNAGIKVAVPQLDIRVKTDKTHYQPGELVNVELTSSLKGKPVSAQLTVGVVDEMIYALQPE | not soluble
HVYDEQIYRKSSEVLRMSSERIEDELKKIEDVSYEIITDEQIQRILSMQNRDDTYDQYQMKQELWDQLAGYASDEKYIDSIHVIDARGSEYSAGSSSSDLLQQEQEEVFKRAKAKSGRNLWMTLGGSDPVLISARQIRSYHQLSLNGLGMVLIQVNVKQMIRDVPKDWGDSVGDIMIADQGGNLVYTAHASAHVPEAAKETLKHPGYDLIKKNGKRYFISYLQSSYQNWSYYNVIPFDQMFAK | not soluble
IDGIFIMDAEGHYLDVNPAICSAIGYTRDEFLALDWGVLSRGVDSGWAAASLARIVGGEPLREERTVWTRNGDQLTVELSAHLLPD | not soluble
IGPVQYHIGGTITYTTNKLIDLGATSVLKSGFVGKQQGYPLNSYFGLRYVGKIQTQEELEKYKYYYLDGNGIGMQDNLRLGDHMFEDVNGDGKLDQNDYVYLGTDDPKLSYSINIGLEWKGFDLSAIFQGVGRRTVFRGGEGNETWRVPMSAIYLNTTTQSIGNTWNPENRNAYYPSYTSIGSINNYNYQCSSWSVENGAYLRLKNLTLGYTLPASWLAKTNAISKLRIYFTGADLWEHSKLRDGWDPEASRKTKDLGRYPFNRTFTVGVNATF | not soluble
IIPISNFFQMVDALAEVSSTRIRLQEEILAGSWESLNTGRADLLVCPSLDTLPQEVKAEKIGKMSMIWVAATEHYVHKRSGEFDDSAREKYRIIAIADTAREQPALSINIIQKQPRLTVTNFTAKVEALTAGLGIGTLPRQIALPLIEKGVLKQIEGTEEQPMDIILAWRRNTMGEAKSWCIQYLKKNWKLK | not soluble
IKDPQTGAPVPLRALINNVSGYVIKTEMYTEVKNAKGEWVFKSLGKPGSMHLRPIATPYPVKEWLQPKRYKAHLMGTTYVYDFPELFRQASSSQWKNFSADVKLTDDFFISNELIEDENGELTEVEREPGANAIGMVAFKITVKTPEYPRGRQFVVVANDITFKIGSFGPQEDEFFNKVTEYARKRGIPRIYLAANSGARIGMAEEIVPLFQVAWNDAANPDKGFQYLYLTSEGMETLKKFDKENSVLTERTVINGEERFVIKTIIGSEDGLGVECLRGSGLIAGATSRAYHDIFTITLVTCRSVGIGAYLVRLGQRAIQVEGQPIILTGAPAINKMLGREVYTSNLQLGGTQIMYNNGVSHLTAVDDLAGVEKIVEWMSYVPAKRNMPVPILETKDTWDRPVDFTPTNDETYDVRWMIEGRETESGFEYGLFDKGSFFETLSGWAKGVVVGRARLGGIPLGVIGVETRTVENLIPADPANPNSAETLIQEPGQVWHPNSAFKTAQAINDFNNGEQLPMMILANWRGFSGGQRDMFNEVLKYGSFIVDALVDYKQPIIIYIPPTGELRGGSWVVVDPTINADQMEMYADVNARAGVLEPQGMVGIKFRREKLLDTMNRLDDKYRELRSQLSNKSLAPEVHQQISKQLADRERELLPIYGQISLQFADLHDRSSRMVAKGVISKELEWTEARRFFFWRLRRRLNEEYLIKRLSHQVGEASRLEKIARIRSWYPASVDHEDDRQVATWIEENYKTLDDKLKGLKLESFAQDLAKKIRSDHDNAIDGLSEVIKMLSTDDKEKLLKTLK | soluble
ILLVHGSGYGGWCWDATIRALAAHGARARALDLPGRIFTPGLSLADHAAAILQEIRAPVTLVGHSAGGFSIAAAAEAAAPGLIERLIFLCAYAPRDGASVASMRRAQARQPLRPAIRLAPDRLSYSFDPDLAGEALFHDCPPEVRAAALARMGAEPVGPQEERIRLSARYHALPKHYIRCLEDRAIPPETQEAMTADWPAGSVSTLPAGHSPFLSCPEALAKRLISVAAN | not soluble
